Read-outs that look alike come from different tables or passages of the source.
Key:
RAGE mutant 0 = RAGE mutant 0 (UniProt Q15109 23-237, K110A;R178A;R179A); experiment: fluorescence polarization
[1] = target: T1, RAGE V-C1 (crystallography) (human, UniProt Q15109 23-237); experiment: X-ray crystallography
[2] = target: T2, RAGE extracellular domain V-C1-C2 (His) (human, UniProt Q15109 23-342); experiment: AlphaScreen
RAGE V domain (His) = RAGE V domain (His) (human, UniProt Q15109 23-121); experiment: AlphaScreen
[3] = target: T2, RAGE extracellular domain V-C1-C2 (His); experiment: AlphaScreen; remark: listed apart in the source
crystal structure = target: the molecule itself; experiment: crystal structure
[4] = target: T1, RAGE V-C1 (crystallography); experiment: X-ray crystallography; remark: listed apart in the source

B1: ODN 787/788 20mer (dsDNA)
DNA 1: CCATCAAAGAGAGAAAGAGC
DNA 2: GCTCTTTCTCTCTTTGATGG
- binding result (RAGE mutant 0): binds

B2: ODN 981/982 CpG 22mer (dsDNA)
DNA 1: CTGCAACGATGCTACGAACGTG
DNA 2: CACGTTCGTAGCATCGTTGCAG
- binding result [1]: binds

Binder: GGGGACGACGTCGTGGGGGGG (ssDNA, phosphorothioate at positions marked * (G*G*GGACGACGTCGTGG*G*G*G*G*G)) [ODN 2336 (CpG-A)]
- binding result [2]: binds

Binder: TCGTCGTTTTGTCGTTTTGTCGTT (ssDNA, backbone of assayed form not in material; probably phosphorothioate) [ODN 2006 (CpG-B)]
- binding result (RAGE V domain (His)): binds
- binding result [3]: binds

B3: Human RAGE V-C1 domain (residues 23-237) (domain or fragment)
chain: AQNITARIGEPLVLKCKGAPKKPPQRLEWKLNTGRTEAWKVLSPQGGGPWDSVARVLPNGSLFLPAVGIQDEGIFRCQAMNRNGKETKSNYRVRVYQIPGKPEIVDSASELTAGVPNKVGTCVSEGSYPAGTLSWHLDGKPLVPNEKGVSVKEQTRRHPETGLFTLQSELMVTPARGGDPRPTFSCSFSPGLPRHRALRTAPIQPRVWEPVPLEE
- binding result (crystal structure): binds

B4: ODN 752/753 vaccinia repeat 22mer (dsDNA)
DNA 1: CCATGACTGTAGGAAACTCTAG
DNA 2: GCTAGAGTTTCCTACAGTCATG
- binding result [4]: binds
